Assay results: US10704064B2, “Recombinant yeast producing 3-hydroxypropionic acid and method for producing 3-hydroxypropionic acid using the same” (SK Innovation Co., Ltd., priority 2014, dated 2020)

Columns and labels:
AADH = AADH in vitro enzyme activity assay from yeast cell lysates; assay type: biochemical; conditions: in vitro, expressed in yeast
Experimental: AADH activity was measured as described by Kozak et al. (2014, Metab. Eng. 21:46-59) by monitoring the reduction of NAD^+ at 340 nm at 30° C. The yeast cells for the cell lysates were collected, washed with water, and then resuspended into lysis buffer containing 100 mM Tris-HCl buffer (pH 7.5) and 1×EDTA free protease inhibitor cocktail (Roche). The cells were lysed with glass beads in a Precellys 24 homogenizer at 5500 rpm for 3×40 seconds and kept on ice between rounds. Lysates were centrifuged at 16 000 g for 20 min at 4° C. and supernatants were collected. The total protein concentration was determined using the Bradford method.
The enzyme assay reaction mixture contained 0.1 mM Coenzyme A, 50 mM CHES buffer (pH 9.5), 0.8 mM NAD^+, 0.2 mM DTT and 10 μL of cell extract in a total reaction volume of 200 μL. The reaction was started by adding 10 mM of freshly prepared acetaldehyde solution and reduction of NAD^+ was followed with a Thermo Konelab 20XT analyser.
Five AADH genes were originally chosen (i.e. ADHEpm, ADHEec, EUTec, EUTdz and LIN1129li) and transformed into the CEN.PK lab strain. These AADHs were expressed from a multicopy plasmid where they were under control of the TEF1 promoter.
Twenty additional novel AADH genes were chosen from the genome mining analyses to be evaluated for expression and enzyme activity in yeast.

[1] = system: S. cerevisiae VSK-128 ACS2 deletion strain; assay: AADH in vivo growth assay, ACS2 deletion strain on glucose-based agar plates; assay type: cell-based
Text: All copies of the ACS2 gene were deleted from the industrial S. cerevisiae VSK-128 strain in order to generate a strain with a defective PDH-bypass that was incapable of growth on glucose-based medium. Expression vectors carrying the 25 different AADH variants were then transformed into this ACS2 deletion strain to evaluate their ability to recover the growth of this strain on glucose.
There was a good correlation between the in vitro AADH enzyme activity assays and the in vivo growth recovery analyses.

MCR = assay: archaeal MCR activity assay in E. coli lysates (microtitre plate); assay type: biochemical; conditions: E. coli cell lysate, NADPH or NADH
Experimental: (§1) pBAT T7 promoter based expression constructs were made for four different archaeal MCRs, Metallosphaera sedula (MCRms), Sulfolobus tokodai (MCRst), Candidatus caldiarchaeum (MCRcc), and Sulfolobales archaeon (MCRsa1).
Their activity was analyzed using the following assay conditions: 0.4 mM NAD(P)H; 0.15 mM Malonyl-CoA; Tris-HCl pH 7; 2 mM MgCl2. Assays on 20 times diluted lysates were performed in microtitre plate (MTP) format at RT. The oxidation of NADPHT or NADHT at A^365 in time was followed. […] However, the MCR activities were smaller than that measured for the tagged MCRca.

[2] = SDS-PAGE expression levels of MCR constructs in E. coli lysate
Text: as §1

Molecule	AADH activity (AADH)	recovery of the growth deficiency of the ACS2-deletion strain [1]	MCR activity (MCR)	expression level [2]
AADHvs: eutE type AADH of Vibrio sp. EJY3, GenBank AEX22176.1 (protein, AADHvs) MNEQEIAHAVENVLSKYTNVTAQNAEPVSYSSNASLENIVSQALAGNMVKQPETQTAPDLNSNIENIVSQILAENQAKPQSVQCQSANHGTTEYLGCFASMEEAISAASHAQVQYRHCTMGDRASFVKGIREVFTQDDVLEKISRMAVEETGMGNYADKLTKNRIAATKTPGIEDLTTSALSGDSGLTLTEFSAYGVIGSITPTTNPTETIINNSIGMLAAGNTVVYSPHPRSRNVSLVAVDLINRKLAELGAPANLVVTVLEPSIDNTNAMMNDPRVNMLVATGGPSIVKTVMSTGKKAIGAGAGNPPAVVDETANIEKAAKDIINGCAFDNNLPCIAEKEVIVVNEVADYLIHCMKKSGAYLLCDKQKIQQLQSLVLNEKGTGPNTSFVGKGARYILDKLNIQVSDDIKVILIETERNHPFVVHELMMPILPVVRVENVDEAIDLAIKVEHGNRHTAIMHSTNVEKLSKMARLIQTTIFVKNGPSYSGIGVGGEGHTTFTIAGPTGEGITSARSFARYRRCVMVEALNIR	shown to have AADH activity	capable of recovering the growth deficiency	–	–
MCRcc: archaeal malonyl-CoA reductase of Candidatus Caldiarchaeum subterraneum, GenBank BAJ50751.1 (protein, Candidatus Caldiarchaeum) MKTYSVAILGATGMVGQHYIRMLYRHPWFRITALTGKESVGRKYVEAVRGEAPEPPKEIAEMEVLPTDPKKVDADFVFSCLPTEAAREAEPKFAEAGFPVFSDAAAYRMEEDVPLIVPEINHDHLNMVHIQRKKRGWEGYIVTTPNCTTVGLVLPLQPLKQHLGVKKVIVTTMQAVSGAGYPGVASLSILGNVIPYISGEERKVETETAKILGRYGDGRFTHDSVEVHATCTRVPTLDGHMESIYLETAKPADEETVAELLAEYVSLPQELNLPTAPARPIVVRRELDRPQTRIDVDAGTVPGMSVSVGRIRVNGEKVRFISLSHNLIRGAAGGTILTAELARHMGLLGE	–	–	No activity on NADPH or NADH could be measured	could not be expressed in a soluble form
